Source: patent US20020081570A1, “System to detect protein-protein interactions” (priority 2000, published 2002)

Molecular target: T1, syntaxin 1A (Homo sapiens, UniProt Q16623)
T1 construct: expressed in transfected cells; host or cells: yeast (two-hybrid; cotransformations and yeast matings)
Assay: yeast two-hybrid screen (cotransformations and yeast matings)
Type: binding
Conditions: yeast two hybrid system
From the text: The present inventors completed a yeast two-hybrid screen using Syt 1, syntaxin 1A and synaptobrevin 2 (Vamp 2). Recombinant and native Syt-1 and syntaxin 1A were shown previously to interact in a calcium dependent manner. […] Screens performed using two different approaches—cotransformations and yeast matings—gave identical findings.

T1 sequence (Q16623 whole entry, species assumed): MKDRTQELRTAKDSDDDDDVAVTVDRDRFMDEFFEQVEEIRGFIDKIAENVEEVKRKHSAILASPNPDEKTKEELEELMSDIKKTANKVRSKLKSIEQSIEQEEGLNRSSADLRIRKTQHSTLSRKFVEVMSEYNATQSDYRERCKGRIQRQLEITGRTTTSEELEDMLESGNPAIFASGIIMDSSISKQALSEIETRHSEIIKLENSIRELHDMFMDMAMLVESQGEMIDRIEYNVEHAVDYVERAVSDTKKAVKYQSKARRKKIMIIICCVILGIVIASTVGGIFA

Row | direct interaction with syntaxin 1A | Substance
1 | did not | Syt-1: synaptotagmin I protein used in yeast two-hybrid screen
2 | interact directly | synaptobrevin: synaptobrevin 2 (Vamp 2) protein used in yeast two-hybrid screen
